Experimental data taken from publication PMC7290032 (Nature Communications, 2020).

Target: MCM8-9 complex, purified (human, UniProt Q9NXL9-1 1-1143; Q9UJA3-1 1-840)
Test: cell-based or functional assay

Sequence of MCM8-9 complex, purified (Q9NXL9 whole entry, chain 1 of 2): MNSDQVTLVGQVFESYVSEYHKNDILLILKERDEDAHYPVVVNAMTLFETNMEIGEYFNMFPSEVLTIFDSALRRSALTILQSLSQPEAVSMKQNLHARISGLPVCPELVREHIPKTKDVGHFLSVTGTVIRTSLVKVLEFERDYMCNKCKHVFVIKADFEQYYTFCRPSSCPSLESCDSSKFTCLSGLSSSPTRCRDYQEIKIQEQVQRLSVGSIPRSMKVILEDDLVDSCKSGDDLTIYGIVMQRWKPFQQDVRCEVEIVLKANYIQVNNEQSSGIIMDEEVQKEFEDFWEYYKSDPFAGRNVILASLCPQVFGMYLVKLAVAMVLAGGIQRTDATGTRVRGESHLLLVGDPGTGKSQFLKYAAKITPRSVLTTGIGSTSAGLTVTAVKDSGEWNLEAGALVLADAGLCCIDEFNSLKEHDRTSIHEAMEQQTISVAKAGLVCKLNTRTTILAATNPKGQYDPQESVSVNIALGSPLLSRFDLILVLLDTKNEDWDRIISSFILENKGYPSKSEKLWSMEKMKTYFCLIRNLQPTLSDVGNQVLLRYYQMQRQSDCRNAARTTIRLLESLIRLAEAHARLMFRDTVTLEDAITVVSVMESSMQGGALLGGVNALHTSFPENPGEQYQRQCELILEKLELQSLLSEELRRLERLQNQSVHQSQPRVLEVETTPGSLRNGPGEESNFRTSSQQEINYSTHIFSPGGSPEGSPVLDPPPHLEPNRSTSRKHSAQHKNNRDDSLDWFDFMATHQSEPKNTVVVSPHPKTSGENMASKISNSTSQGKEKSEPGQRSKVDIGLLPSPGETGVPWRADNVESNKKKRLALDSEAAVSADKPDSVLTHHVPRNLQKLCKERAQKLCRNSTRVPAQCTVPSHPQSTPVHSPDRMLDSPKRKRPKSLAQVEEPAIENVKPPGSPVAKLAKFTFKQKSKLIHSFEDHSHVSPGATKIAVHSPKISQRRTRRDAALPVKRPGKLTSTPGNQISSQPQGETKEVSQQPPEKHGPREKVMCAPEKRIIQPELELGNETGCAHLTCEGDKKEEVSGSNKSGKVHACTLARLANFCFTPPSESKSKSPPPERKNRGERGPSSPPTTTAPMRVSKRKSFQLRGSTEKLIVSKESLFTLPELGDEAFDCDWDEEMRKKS
Sequence of MCM8-9 complex, purified (Q9UJA3 whole entry, chain 2 of 2): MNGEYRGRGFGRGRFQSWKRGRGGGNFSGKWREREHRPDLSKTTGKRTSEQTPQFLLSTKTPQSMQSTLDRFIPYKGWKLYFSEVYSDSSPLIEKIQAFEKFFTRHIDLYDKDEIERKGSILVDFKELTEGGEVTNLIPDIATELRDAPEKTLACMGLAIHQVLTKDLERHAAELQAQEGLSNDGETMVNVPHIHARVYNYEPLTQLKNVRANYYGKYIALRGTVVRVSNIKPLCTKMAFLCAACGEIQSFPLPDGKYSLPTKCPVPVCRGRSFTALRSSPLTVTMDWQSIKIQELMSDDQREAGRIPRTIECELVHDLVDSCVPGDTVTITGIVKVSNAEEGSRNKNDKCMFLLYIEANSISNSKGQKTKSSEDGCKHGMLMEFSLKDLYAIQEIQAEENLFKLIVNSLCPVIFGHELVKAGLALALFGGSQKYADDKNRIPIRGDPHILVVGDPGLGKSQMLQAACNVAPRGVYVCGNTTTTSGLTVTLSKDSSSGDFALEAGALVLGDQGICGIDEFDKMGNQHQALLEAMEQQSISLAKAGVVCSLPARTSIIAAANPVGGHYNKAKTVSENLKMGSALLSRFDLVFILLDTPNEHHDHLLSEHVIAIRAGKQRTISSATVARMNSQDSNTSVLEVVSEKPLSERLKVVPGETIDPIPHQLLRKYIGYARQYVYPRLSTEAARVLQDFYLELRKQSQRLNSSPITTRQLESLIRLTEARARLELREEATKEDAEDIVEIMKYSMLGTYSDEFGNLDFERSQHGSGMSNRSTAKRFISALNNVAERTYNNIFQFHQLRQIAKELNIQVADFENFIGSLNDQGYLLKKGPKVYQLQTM

B1: MCM8IP-FLAG WT (recombinant) (natural protein, human, UniProt Q8N3J3-4 1-646, looked up)
chain: MACSLQKLFAVEEEFEDEDFLSAVEDAENRFTGSLPVNAGRLRPVSSRPQETVQAQSSRLLLLHPTAPSEALGLPDLDLCLPASSTPSADSRPSCIGAAPLRPVSTSSSWIGNQRRVTVTEVLRETARPQSSALHPLLTFESQQQQVGGFEGPEQDEFDKVLASMELEEPGMELECGVSSEAIPILPAQQREGSVLAKKARVVDLSGSCQKGPVPAIHKAGIMSAQDESLDPVIQCRTPRPPLRPGAVGHLPVPTALTVPTQQLHWEVCPQRSPVQALQPLQAARGTIQSSPQNRFPCQPFQSPSSWLSGKAHLPRPRTPNSSCSTPSRTSSGLFPRIPLQPQAPVSSIGSPVGTPKGPQGALQTPIVTNHLVQLVTAASRTPQQPTHPSTRAKTRRFPGPAGILPHQQSGRSLEDIMVSAPQTPTHGALAKFQTEIVASSQASVEEDFGRGPWLTMKSTLGLDERDPSCFLCTYSIVMVLRKAALKQLPRNKVPNMAVMIKSLTRSTMDASVVFKDPTGEMQGTVHRLLLETCQNELKPGSVLLLKQIGVFSPSLRNHYLNVTPNNLVHIYSPDSGDGSFLKPSQPFPKDSGSFQHDVAAKPEEGFRTAQNLEAEASPEEELPEADDLDGLLSELPEDFFCGTSS
- DNA unwinding (helicase assay): 32P-labelled oligo annealed to M13mp18 ssDNA, MCM8-9 100 nM, MCM8IP 50 nM, with ATP: ~6 fold
